Test results: IntAct's records for PubMed 11473260

B1: SAGA complex/transcription factor TFIID complex subunit TAF12 (Saccharomyces cerevisiae), Q03761 (parent)
chain: MSSNPENSGVNANNNTGTGNADAITGAQQNMVLQPRQLQEMAAKFRTLLTEARNVGETTPRGKELMFQAAKIKQVYDALTLNRRRQQAAQAYNNTSNSNSSNPASIPTENVPNSSQQQQQQQQQTRNNSNKFSNMIKQVLTPEENQEYEKLWQNFQVRHTSIKEKETYLKQNIDRLEQEINKQTDEGPKQQLQEKKIELLNDWKVLKIEYTKLFNNYQNSKKTFYVECARHNPALHKFLQESTQQQRVQQQRVQQQQQQQQQQQQQQQQQQQQQQQRQGQNQRKISSSNSTEIPSVTGPDALKSQQQQQNTITATNNPRGNVNTSQTEQSKAKVTNVNATASMLNNISSSKSAIFKQTEPAIPISENISTKTPAPVAYRSNRPTITGGSAMNASALNTPATTKLPPYEMDTQRVMSKRKLRELVKTVGIDEGDGETVIDGDVEELLLDLADDFVTNVTAFSCRLAKHRKSDNLEARDIQLHLERNWNIRIPGYSADEIRSTRKWNPSQNYNQKLQSITSDKVAAAKNNGNNVASLNTKK
partner: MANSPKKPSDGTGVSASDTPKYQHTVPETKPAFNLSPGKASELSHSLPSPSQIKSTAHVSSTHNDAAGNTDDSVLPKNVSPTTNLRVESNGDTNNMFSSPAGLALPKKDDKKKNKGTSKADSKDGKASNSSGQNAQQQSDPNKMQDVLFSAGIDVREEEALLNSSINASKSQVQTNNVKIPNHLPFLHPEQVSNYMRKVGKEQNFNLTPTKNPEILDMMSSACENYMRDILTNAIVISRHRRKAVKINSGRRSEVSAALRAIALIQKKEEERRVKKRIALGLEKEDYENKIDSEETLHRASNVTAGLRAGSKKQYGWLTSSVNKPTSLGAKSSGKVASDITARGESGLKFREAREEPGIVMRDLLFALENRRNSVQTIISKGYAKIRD

Variants of: B1
Conditions: with taf4_yeast TAF4, P50105

effect of a mutation on the interaction	Variant
disrupting interaction	L449A
disrupting interaction	L446A
